The values that follow come from patent US20220340678A1 (MURAL ONCOLOGY, published 2022).

In general, EC50 refers to the concentration at which the effect is half-maximal. A word on the Kd: it is a measure of binding affinity in units of concentration. A word on the koff: it is the rate constant with which the complex falls apart. In general, kon refers to the rate constant with which the complex forms.

Experiment [1] addresses T1, mouse uPAR on cells (mouse, UniProt P35456 24-298).
T1 construct: whole, on cells; also called Ms-uPAR; mouse uPAR (CD87)
T1 sequence (looked up): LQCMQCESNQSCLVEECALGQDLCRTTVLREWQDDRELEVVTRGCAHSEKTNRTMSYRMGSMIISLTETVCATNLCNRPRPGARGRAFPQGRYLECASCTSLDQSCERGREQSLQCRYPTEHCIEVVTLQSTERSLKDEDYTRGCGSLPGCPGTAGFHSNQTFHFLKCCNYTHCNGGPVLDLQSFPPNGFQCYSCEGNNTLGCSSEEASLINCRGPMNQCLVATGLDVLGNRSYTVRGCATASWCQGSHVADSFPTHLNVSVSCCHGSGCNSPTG
Kind of experiment: flow cytometry on CT26 cells (express mouse uPAR), anti-His detection. Background: A flow cytometer gives signals particle by particle.

Experiment [2] deals with T1, mouse uPAR on cells. Kind of experiment: flow cytometry on EMT6 cells (express mouse uPAR), anti-His detection.
Experiment [3] addresses T2, IL-2/IL-15 receptor on HH cells (human).
T2 chain 1: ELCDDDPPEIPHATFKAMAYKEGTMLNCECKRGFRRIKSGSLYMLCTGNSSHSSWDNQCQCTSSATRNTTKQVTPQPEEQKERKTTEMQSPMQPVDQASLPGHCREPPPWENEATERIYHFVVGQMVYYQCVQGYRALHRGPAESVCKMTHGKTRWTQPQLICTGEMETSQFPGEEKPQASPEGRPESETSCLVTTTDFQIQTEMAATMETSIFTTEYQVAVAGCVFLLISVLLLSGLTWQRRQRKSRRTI
T2 chain 2: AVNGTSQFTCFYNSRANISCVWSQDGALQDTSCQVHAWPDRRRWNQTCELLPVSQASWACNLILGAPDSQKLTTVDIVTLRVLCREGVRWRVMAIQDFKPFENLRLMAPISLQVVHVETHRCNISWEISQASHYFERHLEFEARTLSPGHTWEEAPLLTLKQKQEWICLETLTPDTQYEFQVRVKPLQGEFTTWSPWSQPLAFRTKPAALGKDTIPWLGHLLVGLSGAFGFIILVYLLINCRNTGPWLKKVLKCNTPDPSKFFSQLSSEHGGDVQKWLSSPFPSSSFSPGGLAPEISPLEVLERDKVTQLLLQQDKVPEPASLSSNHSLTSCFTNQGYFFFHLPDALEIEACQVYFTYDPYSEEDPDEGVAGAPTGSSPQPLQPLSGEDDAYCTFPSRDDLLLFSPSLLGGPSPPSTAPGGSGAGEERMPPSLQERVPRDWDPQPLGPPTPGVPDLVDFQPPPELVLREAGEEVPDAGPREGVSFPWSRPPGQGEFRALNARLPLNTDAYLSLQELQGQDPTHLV
T2 chain 3: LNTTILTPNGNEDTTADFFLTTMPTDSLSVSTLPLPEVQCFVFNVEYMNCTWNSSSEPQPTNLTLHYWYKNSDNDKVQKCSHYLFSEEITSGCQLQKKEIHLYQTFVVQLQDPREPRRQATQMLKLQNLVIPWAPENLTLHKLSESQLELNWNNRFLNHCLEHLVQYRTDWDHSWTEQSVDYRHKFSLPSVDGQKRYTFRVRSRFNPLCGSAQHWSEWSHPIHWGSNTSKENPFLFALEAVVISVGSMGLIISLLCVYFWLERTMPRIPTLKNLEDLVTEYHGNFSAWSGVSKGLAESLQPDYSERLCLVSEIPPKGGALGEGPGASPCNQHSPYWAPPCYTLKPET
As to the kind of experiment: cell-based or functional assay.

The target of experiment [4] is T3, Recombinant mouse uPAR-Fc (R&D Systems, Cat. No. 531-PA-100) (mouse, UniProt P35456 24-297, limits assumed).
T3 construct: not shown: Fc of the bought fusion (captured with the human antibody capture kit); not described
T3 sequence (looked up): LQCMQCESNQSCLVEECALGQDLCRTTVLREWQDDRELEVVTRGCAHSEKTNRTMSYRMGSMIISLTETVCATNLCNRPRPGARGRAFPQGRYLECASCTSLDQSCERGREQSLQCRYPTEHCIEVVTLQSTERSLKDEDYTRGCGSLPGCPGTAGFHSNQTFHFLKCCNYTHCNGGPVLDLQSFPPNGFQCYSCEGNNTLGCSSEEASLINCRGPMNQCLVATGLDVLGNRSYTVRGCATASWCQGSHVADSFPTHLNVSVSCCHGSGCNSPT
Kind of experiment: SPR (Biacore), mouse uPAR-Fc captured on anti-human antibody chip.

Experiment [5] has as its target human 4-1BB on 4-1BB effector cells (human, UniProt Q07011 24-255). Kind of experiment: cell-based or functional assay.
Experiment [6] has as its target Recombinant human uPAR his (R&D Systems, 807-UK-100/CF) (human, UniProt Q03405 23-303, biotinylated (sites not given)). As to the kind of experiment: SPR (Biacore), biotinylated human uPAR his on streptavidin chip. A general note: SPR reads the build-up and loss of mass on a sensor chip optically.
The target in experiment [7] is T1, mouse uPAR on cells. As to the kind of experiment: flow cytometry on 4T1 cells (express mouse uPAR), anti-His detection.
The target in experiment [8] is T1, mouse uPAR on cells. Kind of experiment: flow cytometry on MC38 cells (express mouse uPAR), anti-His detection.
The target in experiment [9] is IL-2/IL-15 receptor on primary mouse splenocytes (mouse). Kind of experiment: cell-based or functional assay.
For experiment [10], the target named is T3, Recombinant mouse uPAR-Fc (R&D Systems, …). As to the kind of experiment: SPR (Biacore), mouse uPAR-Fc captured on chip; Table 32 prints 0.15.

Chain of human 4-1BB on 4-1BB effector cells (Q07011 24-255): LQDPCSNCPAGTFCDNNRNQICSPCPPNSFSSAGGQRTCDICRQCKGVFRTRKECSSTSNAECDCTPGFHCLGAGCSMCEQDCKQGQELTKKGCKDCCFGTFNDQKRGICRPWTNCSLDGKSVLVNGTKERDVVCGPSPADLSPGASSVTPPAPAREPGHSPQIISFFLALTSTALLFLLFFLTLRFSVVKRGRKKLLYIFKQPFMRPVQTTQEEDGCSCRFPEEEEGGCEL

B1: Human cpIL-2:IL-2Ra:Human uPA-ATF (N22Y, W30R)-His6 (other)
chain: SKNFHLRPRDLISNINVIVLELKGSETTFMCEYADETATIVEFLNRWITFSQSIISTLTGGSSSTKKTQLQLEHLLLDLQMILNGINNYKNPKLTRMLTFKFYMPKKATELKHLQCLEEELKPLEEVLNLAQGSGGGSELCDDDPPEIPHATFKAMAYKEGTMLNCECKRGFRRIKSGSLYMLCTGNSSHSSWDNQCQCTSSATRNTTKQVTPQPEEQKERKTTEMQSPMQPVDQASLPGHCREPPPWENEATERIYHFVVGQMVYYQCVQGYRALHRGPAESVCKMTHGKTRWTQPQLICTGGGSGGSNELHQVPSNCDCLNGGTCVSYKYFSNIHRCNCPKKFGGQHCEIDKSKTCYEGNGHFYRGKASTDTMGRPCLPWNSATVLQQTYHAHRSDALQLGLGKHNYCRNPDNRRRPWCYVQVGLKPLVQECMVHDCAHHHHHH
notes: also called 110
In [1], B1 showed an EC50 of 1.4 nM. In experiment [2], the EC50 was found to be 0.54 nM. For the same molecule, in experiment [3], the “pSTAT5 EC50, HH cells” value was 1.6 nM. In experiment [4], the Kd came to 0.12 nM, the off-rate constant (koff) is 0.00023 s⁻¹ and the kon worked out at 1.9e+06 M⁻¹ s⁻¹.

B2: Linked human 4-1BBL Trimer: Human uPA-ATF (other)
chain: SNELHQVPSNCDCLNGGTCVSNKYFSNIHWCNCPKKFGGQHCEIDKSKTCYEGNGHFYRGKASTDTMGRPCLPWNSATVLQQTYHAHRSDALQLGLGKHNYCRNPDNRRRPWCYVQVGLKPLVQECMVHDCAGGSGGREGPELSPDDPAGLLDLRQGMFAQLVAQNVLLIDGPLSWYSDPGLAGVSLTGGLSYKEDTKELVVAKAGVYYVFFQLELRRVVAGEGSGSVSLALHLQPLRSAAGAAALALTVDLPPASSEARNSAFGFQGRLLHLSAGQRLGVHLHTEARARHAWQLTQGATVLGLFRVTPEIPAGLPSPRSEGSGREGPELSPDDPAGLLDLRQGMFAQLVAQNVLLIDGPLSWYSDPGLAGVSLTGGLSYKEDTKELVVAKAGVYYVFFQLELRRVVAGEGSGSVSLALHLQPLRSAAGAAALALTVDLPPASSEARNSAFGFQGRLLHLSAGQRLGVHLHTEARARHAWQLTQGATVLGLFRVTPEIPAGLPSPRSEGSGREGPELSPDDPAGLLDLRQGMFAQLVAQNVLLIDGPLSWYSDPGLAGVSLTGGLSYKEDTKELVVAKAGVYYVFFQLELRRVVAGEGSGSVSLALHLQPLRSAAGAAALALTVDLPPASSEARNSAFGFQGRLLHLSAGQRLGVHLHTEARARHAWQLTQGATVLGLFRVTPEIPAGLPSPRSE
As for B2, in experiment [5], the “EC50, luciferase 4-1BB Bioassay” value is 0.1 nM and the “Emax (luciferase units), 4-1BB Bioassay” value was found to be 330000 luciferase units.

B3: Human uPA-ATF:His6 (ligand)
chain: SNELHQVPSNCDCLNGGTCVSNKYFSNIHWCNCPKKFGGQHCEIDKSKTCYEGNGHFYRGKASTDTMGRPCLPWNSATVLQQTYHAHRSDALQLGLGKHNYCRNPDNRRRPWCYVQVGLKPLVQECMVHDCAHHHHHH
notes: also called 103
B3: the EC50 in [1] stood at 1.1 nM; in experiment [7], 0.22 nM; in experiment [8], 0.42 nM. Moreover, the Kd in [6] turned out to be 0.24 nM. For the same molecule, in [6], the koff came to 0.00035 s⁻¹. Besides, the on-rate constant (kon) in experiment [6] came out at 1.5e+06 M⁻¹ s⁻¹.

B4: Mouse cpIL-2:IL-2Ra:mouse uPA-ATF-His6 (other)
chain: SKSFQLEDAENFISNIRVTVVKLKGSDNTFECQFDDESATVVDFLRRWIAFCQSIISTSPQGGSSSTQQQQQHLEQLLMDLQELLSRMENYRNLKLPRMLTFKFYLPKQATELKDLQCLEDELGPLRHVLDLTQGSGGGSELCLYDPPEVPNATFKALSYKNGTILNCECKRGFRRLKELVYMRCLGNSWSSNCQCTSNSHDKSRKQVTAQLEHQKEQQTTTDMQKPTQSMHQENLTGHCREPPPWKHEDSKRIYHFVEGQSVHYECIPGYKALQRGPAISICKMKCGKTGWTQPQLTCVDGGSGGGSVLGAPDESNCGCQNGGVCVSYKYFSRIRRCSCPRKFQGEHCEIDASKTCYHGNGDSYRGKANTDTKGRPCLAWNAPAVLQKPYNAHRPDAISLGLGKHNYCRNPDNQKRPWCYVQIGLRQFVQECMVHDCHHHHHH
notes: also called 101
On to B4, for which, in experiment [1], the EC50 came to 1.3 nM. Further, in experiment [7], it took 1 nM to reach a half-maximal effect (EC50). Moreover, a half-maximal response in experiment [2] (EC50) required 0.41 nM. The molecule also had an EC50 in experiment [8] of 0.71 nM. Also, in experiment [4], the Kd amounted to 0.19 nM, the koff was determined as 0.00026 s⁻¹ and the kon is 1.3e+06 M⁻¹ s⁻¹. In addition, in experiment [9], the “pSTAT5 EC50, mouse NK cells” value amounted to 20 nM; the “pSTAT5 EC50, mouse Tregs” value came to 17 nM; the “pSTAT5 EC50, mouse memory CD8 T cells” value came out at 27 nM.

B5: Mouse uPA-ATF His6 (ligand)
chain: GSVLGAPDESNCGCQNGGVCVSYKYFSRIRRCSCPRKFQGEHCEIDASKTCYHGNGDSYRGKANTDTKGRPCLAWNAPAVLQKPYNAHRPDAISLGLGKHNYCRNPDNQKRPWCYVQIGLRQFVQECMVHDCHHHHHH
notes: also called 104
For the molecule B5, the Kd in [10] came out at 0.14 nM. Further, in experiment [4], the Kd was 0.15 nM, the koff came to 0.00032 s⁻¹ and the kon came to 2.2e+06 M⁻¹ s⁻¹.
